Experimental data taken from paper PMC6538776, “The Bacterial DNA Binding Protein MatP Involved in Linking the Nucleoid Terminal Domain to the Divisome at Midcell Interacts with Lipid Membranes” (mBio, 2018).

Experiments:
[1] = molecular target: the molecule itself; experiment: AUC + other: light scattering; MatP alone in solution, working buffer (50 mM Tris-HCl, 300 mM KCl, 5 mM MgCl2, pH 7.5); details in the supplement to Fig. S7
MatP = molecular target: T1, MatP (Escherichia coli, UniProt P0A8N0 1-150); experiment: fluorescence anisotropy; 300 mM KCl, 5 mM MgCl2; Kd in MatP dimer units; 1 dimer per DNA; 50 mM Tris-HCl, 300 mM KCl, 5 mM MgCl2, pH 7.5; temperature not stated; matS-Fl 10 nM in anisotropy titrations; conditions: protein: recombinant; tags: untagged (N-terminal His6 removed by thrombin); chain copies: 2; label: 5'-fluorescein on sense strand
T1 sequence: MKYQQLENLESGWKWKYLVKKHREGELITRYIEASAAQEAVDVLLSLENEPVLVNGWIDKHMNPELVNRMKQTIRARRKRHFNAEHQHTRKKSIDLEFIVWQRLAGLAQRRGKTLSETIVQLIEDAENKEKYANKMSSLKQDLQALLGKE

B1: MatP (natural protein, Escherichia coli, UniProt P0A8N0 1-150, looked up)
chain: T1 sequence
notes: also called recombinant untagged MatP; not shown: His6, N-terminal, cleaved
stoichiometry N [1]: 2

B2: matS-Fl (matS19) (dsDNA)
DNA 1: AAAGTGACACTGTCACCTT
DNA 2: AAGGTGACAGTGTCACTTT
Kd (MatP): 15 ± 2 nM
